Sequences and labels used below:
B1: BMPRIA-Fc (Fc fusion)
chain: QNLDSMLHGTGMKSDSDQKKSENGVTLAPEDTLPFLKCYCSGHCPDDAINNTCITNGHCFAIIEEDDQGETTLASGCMKYEGSDFQCKDSPKAQLRRTIECCRTNLCNQYLQPTLPPVVIGPFFDGSIR
modifications: Extracellular domain; C-terminal human IgG Fc (left out) makes a disulfide-linked dimer. The protein was bought from R&D Systems with species and limits not given; human is taken as the likeliest …
B4: mouse GDF-5 (ligand, UniProt P43027 376-495, looked up)
chain: APLANRQGKRPSKNLKARCSRKALHVNFKDMGWDDWIIAPLEYEAFHCEGLCEFPLRSHLEPTNHAVIQTLMNSMDPESTPPTCCVPTRLSPISILFIDSANNVVYKQYEDMVVESCGCR
notes: Growth differentiation factor 5, mouse, recombinant; source: bought: R&D Systems
B5: mouse GDF-6 (ligand, UniProt P43028 335-454, looked up)
chain: TAFASRHGKRHGKKSRLRCSRKPLHVNFKELGWDDWIIAPLEYEAYHCEGVCDFPLRSHLEPTNHAIIQTLMNSMDPGSTPPSCCVPTKLTPISILYIDAGNNVVYKQYEDMVVESCGCR
notes: Growth differentiation factor 6, mouse, recombinant; source: bought: R&D Systems
B6: recombinant BMPRIB-Fc (Fc fusion, mouse, UniProt P36898 14-126, looked up)
chain: KKEDGESTAPTPRPKILRCKCHHHCPEDSVNNICSTDGYCFTMIEEDDSGMPVVTSGCLGLEGSDFQCRDTPIPHQRRSIECCTERNECNKDLHPTLPPLKDRDFVDGPIHHK
notes: BMPRIB (ALK6), mouse, extracellular domain; cDNA fragment NM_007560.3, 4-378 bp, from FANTOM cDNA clones (RIKEN); also called ALK6; source: 293F cells, transfected, purified from culture supernatant (Protein A columns)

Test in all cases: SPR; BMPRIA-Fc or BMPRIB-Fc captured with an anti-human Fc IgG capture kit; ligands injected at 25 °C, 30 μL/min; HBS-EP (+) running buffer; single-cycle kinetics, 1:1 binding model, Biacore T100; average of 2 or 3 independent analyses
One test concerns the target T1, human BMP6 (human, UniProt P22004 375-513).
T1 construct: Bone morphogenetic protein 6, human, recombinant; source: bought: R&D Systems
T1 sequence (looked up): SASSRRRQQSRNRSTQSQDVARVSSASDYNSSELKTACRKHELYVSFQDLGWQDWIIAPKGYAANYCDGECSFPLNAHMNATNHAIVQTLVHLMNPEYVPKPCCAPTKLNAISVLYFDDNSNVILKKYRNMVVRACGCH
Particulars: both partners purified.

The target in the next test is T2, mouse GDF-7 (mouse, UniProt P43029 316-461).
T2 construct: Growth differentiation factor 7, mouse, recombinant; source: bought: R&D Systems
T2 sequence (looked up): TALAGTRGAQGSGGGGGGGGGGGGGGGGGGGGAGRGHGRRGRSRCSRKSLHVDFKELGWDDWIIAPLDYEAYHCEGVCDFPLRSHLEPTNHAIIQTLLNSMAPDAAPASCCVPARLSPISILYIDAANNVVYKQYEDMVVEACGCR
The following applies: both partners purified.

A further test addresses T3, BMPRIA-Fc, P36895.
T3 chain: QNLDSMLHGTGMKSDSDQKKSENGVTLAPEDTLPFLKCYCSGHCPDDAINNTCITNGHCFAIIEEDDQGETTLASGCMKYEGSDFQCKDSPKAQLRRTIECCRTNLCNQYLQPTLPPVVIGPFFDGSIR
Particulars: remark: other sources report otherwise.

The target in the test “recombinant BMPRIB-Fc” is B6. Particulars: both partners purified.
The test “BMPRIA-Fc” concerns the target B1. Particulars: both partners purified.
The next test concerns the target T4, human BMP2 (human, UniProt P12643 283-396).
T4 construct: Bone morphogenetic protein 2, human, recombinant; source: bought: R&D Systems
Particulars: both partners purified.

Another test deals with T5, human BMP4 (human, UniProt P12644 293-408).
T5 construct: Bone morphogenetic protein 4, human, recombinant; source: bought: R&D Systems
T5 sequence (looked up): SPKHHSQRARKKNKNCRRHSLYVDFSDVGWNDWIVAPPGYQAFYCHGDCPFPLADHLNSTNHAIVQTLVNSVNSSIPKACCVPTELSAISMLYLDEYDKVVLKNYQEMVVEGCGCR
Particulars: both partners purified.

In a further test the target is T6, human BMP7 (human, UniProt P18075 293-431).
T6 construct: Bone morphogenetic protein 7, human, recombinant; source: bought: R&D Systems
T6 sequence (looked up): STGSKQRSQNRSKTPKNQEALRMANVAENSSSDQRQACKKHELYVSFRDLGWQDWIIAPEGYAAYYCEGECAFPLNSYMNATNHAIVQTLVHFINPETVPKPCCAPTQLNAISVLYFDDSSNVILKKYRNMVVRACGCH
The following applies: both partners purified.

The target of the test “mouse GDF-5” is B4. Particulars: both partners purified.
The test “mouse GDF-6” deals with B5. Particulars: both partners purified.

T4 sequence (P12643 283-396): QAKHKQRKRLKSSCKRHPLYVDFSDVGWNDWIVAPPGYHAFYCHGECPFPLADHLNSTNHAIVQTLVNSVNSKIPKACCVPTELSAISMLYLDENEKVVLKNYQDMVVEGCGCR

Turning to B1, the Kd (usually the free concentration of one partner at which half of the binding sites on the other are occupied at equilibrium, for simple one-to-one binding) came out at 0.0792 nM with human BMP6 and 0.432 nM with mouse GDF-7.

B2: human BMP7, P18075 293-431 (ligand)
chain: STGSKQRSQNRSKTPKNQEALRMANVAENSSSDQRQACKKHELYVSFRDLGWQDWIIAPEGYAAYYCEGECAFPLNSYMNATNHAIVQTLVHFINPETVPKPCCAPTQLNAISVLYFDDSSNVILKKYRNMVVRACGCH
modifications: here or on the partner: Extracellular domain; C-terminal human IgG Fc (left out) makes a disulfide-linked dimer. The protein was bought from R&D Systems with species and limits not given; human is taken as the likeliest pr
For B2, the Kd in the test with BMPRIA-Fc, P36895 amounted to 1.95 nM.

B3: human BMP10 (ligand, UniProt O95393 317-424, looked up)
chain: NAKGNYCKRTPLYIDFKEIGWDSWIIAPPGYEAYECRGVCNYPLAEHLTPTKHAIIQALVHLKNSQKASKACCVPTKLEPISILYLDKGVVTYKFKYEGMAVSECGCR
notes: Bone morphogenetic protein 10, human, recombinant; source: bought: R&D Systems
On to B3, for which, in the test with recombinant BMPRIB-Fc, the Kd worked out at 0.00945 nM.
As for B4, the Kd with BMPRIA-Fc stood at 1.63 nM.
Molecule B5 yielded a dissociation constant Kd with BMPRIA-Fc of 0.48 nM.
Consider B6, for which the Kd with human BMP2 was determined as 0.00248 nM; with human BMP4, 0.221 nM; with human BMP6, 0.00035 nM; with human BMP7, 0.268 nM; with mouse GDF-5 it was 0.129 nM; with mouse GDF-6 it was 0.159 nM. In the test with mouse GDF-7, the equilibrium dissociation constant (Kd) worked out at 0.209 nM.
